# Source: article PMC12810918
# B1: ADIB (recombinant ADI, assemblage B, isolate GS) (Giardia duodenalis ATCC 50581) (protein)
# chain: MTDFTKDKEKLAQATQGGETERAEIVVVHLPQGTSFLTSLNPEGNLLEESMCPDELKRDHEGFQAILKEKGCRVYMPYDVLSEASPAEREVLMDQAMASLKYEFHPSGARITPKMKYCVSDEYKRKVLSALSNRNLVDVILSEPVIHLIPGVRNTALVTKSVEIHDSNNMVFMRDQQITTRRGVVMGQFQAPQRRREQVFALIFWKRLGVRVVGDCREGGPHCMLEGGDFIPASPGLTMMGVGLRSTYVGARYLMSKDLLGTRRFAVVKDCFDQHQDRMHLDCTCSIIHDKLVVLDEYICSGMGLRYVDEWIDIGAEAAKKAKSSAVICGTYALVKANVEFQQWLDENGYTIIRIPHEYQLAYGCNNLNLGNNCVLSVHQPTIDFIKASPAYISYCKSHNLSNGLDLVYVPFRGITRMYGSLHCASQVIYRTPATPATVKACEQEGDGLAAIYEKNGEPVDAAGKNFDCVLYIPSTVDDLVDSLGISLGDDVAPSREIIADVHKLYQKLISEGRVPYITWRMPSMPVVSLKGAARAGSLKAILDKIPQLPSFTPKVVDGAPAAYTRYLGLEQADICIDIS
# Legend:
# N=C(N)NCCC[C@H](N)C(=O)O = test: purified protein; settings: 40 mM Hepes pH 7.0, 0-20 mM arginine
# [1] = substrate: N=C(N)NCCC[C@H](N)C(=O)O; test: colorimetric determination of citrulline formation; type: biochemical, Giardia duodenalis; settings: 40 mM Hepes pH 7.0, 0-20 mM arginine
# From the text: colorimetric determination of citrulline formation on ADIB (recombinant ADI, assemblage B, isolate GS) | recombinantly expressed ADIAI, ADIAII and ADIB in bacteria and determined the Km values
Molecule,Km (N=C(N)NCCC[C@H](N)C(=O)O) [µM],Km [1] [µM],kcat [1] [s⁻¹]
"ADIE (recombinant ADI, assemblage E, isolate P15) (Giardia lamblia P15)",340 ± 30,,
B1,,360 ± 20,1.99 ± 0.16
